B1: Ibalizumab (antibody, V domains shown)
VH: QVQLQQSGPEVVKPGASVKMSCKASGYTFTSYVIHWVRQKPGQGLDWIGYINPYNDGTDYDEKFKGKATLTSDTSTSTAYMELSSLRSEDTAVYYCAREKDNYATGAWFAYWGQGTLVTVSS
VL: DIVMTQSPDSLAVSLGERVTMNCKSSQSLLYSTNQKNYLAWYQQKPGQSPKLLIYWASTRESGVPDRFSGSGSGTDFTLTISSVQAEDVAVYYCQQYYSYRTFGGGTKLEIKR
notes: also called Ibalizumab monoclonal antibody
B2: Tregalizumab (antibody, V domains shown)
VH: EEQLVESGGGLVKPGGSLRLSCAASGFSFSDCRMYWLRQAPGKGLEWIGVISVKSENYGANYAESVRGRFTISRDDSKNTVYLQMNSLKTEDTAVYYCSASYYRYDVGAWFAYWGQGTLVTVSS
VL: DIVMTQSPDSLAVSLGERATINCRASKSVSTSGYSYIYWYQQKPGQPPKLLIYLASILESGVPDRFSGSGSGTDFTLTISSLQAEDVAVYYCQHSRELPWTFGQGTKVEIKR
notes: also called Tregalizumab monoclonal antibody
B3: CAR No. 4 (anti-CD4 chimeric antigen receptor, scFv derived from SK3) (other)
chain: QVQLQQSGPELVKPGASVKMSCKASGYTFTDYVINWVKQRTGQGLEWIGETYTGSGSSYYNEKFKDKATLTVDKASNIAYMQLSSLTSEDSAVYFCARRGKGTGFAFWGQGTLVTVSAGGGGSGGGGSGGGGSDIVLTQSPASLAVSLGQRATISCKASQSVDYDGDSYMNWYQQKPGQPPKLLIYAASNLESGIPARFTGSGSGTDFTLNIHPVEEEDTATYYCQQSYEDPPTFAGGTNLEIKTTTPAPRPPTPAPTIASQPLSLRPEACRPAAGGAVHTRGLDFACDIYIWAPLAGTCGVLLLSLVITLYCKRGRKKLLYIFKQPFMRPVQTTQEEDGCSCRFPEEEEGGCELRVKFSRSADAPAYKQGQNQLYNELNLGRREEYDVLDKRRGRDPEMGGKPRRKNPQEGLYNELQKDKMAEAYSEIGMKGERRRGKGHDGLYQGLSTATKDTYDALHMQALPPR
B4: CAR No. 3 (anti-CD4 chimeric antigen receptor, Tregalizumab VH/VL) (other)
chain: EEQLVESGGGLVKPGGSLRLSCAASGFSFSDCRMYWLRQAPGKGLEWIGVISVKSENYGANYAESVRGRFTISRDDSKNTVYLQMNSLKTEDTAVYYCSASYYRYDVGAWFAYWGQGTLVTVSSAGGGGSGGGGSGGGGSDIVMTQSPDSLAVSLGERATINCRASKSVSTSGYSYIYWYQQKPGQPPKLLIYLASILESGVPDRFSGSGSGTDFTLTISSLQAEDVAVYYCQHSRELPWTFGQGTKVEIKRTTTPAPRPPTPAPTIASQPLSLRPEACRPAAGGAVHTRGLDFACDIYIWAPLAGTCGVLLLSLVITLYCKRGRKKLLYIFKQPFMRPVQTTQEEDGCSCRFPEEEEGGCELRVKFSRSADAPAYKQGQNQLYNELNLGRREEYDVLDKRRGRDPEMGGKPRRKNPQEGLYNELQKDKMAEAYSEIGMKGERRRGKGHDGLYQGLSTATKDTYDALHMQALPPR
B5: CAR No. 6 (anti-CD4 chimeric antigen receptor) (other)
chain: QIQLVQSGPELKKPGETVKISCKASGYTFTNYGMNWVKQAPGKGLKCMGWINTNTGEPTYAEEFKGRFAFSLETSATTAFLQINNLKDEDTATYFCARLGLYYDYGYYAMDYWGQGASVTVSSGGGGSGGGGSGGGGSNIVLTQSPASLAVSLGQRATISCRASESVDSYGNSFMHWYQQKPGQPPKLFIYLASNLESGVPARFSGSGSRTDFTLTIDPVEADDAATYYCQQNNEDPYTFGGGTKLEIKTTTPAPRPPTPAPTIASQPLSLRPEACRPAAGGAVHTRGLDFACDIYIWAPLAGTCGVLLLSLVITLYCKRGRKKLLYIFKQPFMRPVQTTQEEDGCSCRFPEEEEGGCELRVKFSRSADAPAYKQGQNQLYNELNLGRREEYDVLDKRRGRDPEMGGKPRRKNPQEGLYNELQKDKMAEAYSEIGMKGERRRGKGHDGLYQGLSTATKDTYDALHMQALPPR

Key:
[1] = biological target: T1, hybrid CD4 protein: mouse CD4 backbone with human CD4 Domain 1 (human; mouse, UniProt P06332 129-457, limits assumed); test: flow cytometry on HEK293-6E cells expressing mouse CD4 with human CD4 domain 1, against isotype control
T1 construct: Transiently expressed on HEK-293 cells from the pcDNA3.4 vector; also called D1
T1 sequence (P06332 other isoform, or with tags, fused parts or gaps limits assumed): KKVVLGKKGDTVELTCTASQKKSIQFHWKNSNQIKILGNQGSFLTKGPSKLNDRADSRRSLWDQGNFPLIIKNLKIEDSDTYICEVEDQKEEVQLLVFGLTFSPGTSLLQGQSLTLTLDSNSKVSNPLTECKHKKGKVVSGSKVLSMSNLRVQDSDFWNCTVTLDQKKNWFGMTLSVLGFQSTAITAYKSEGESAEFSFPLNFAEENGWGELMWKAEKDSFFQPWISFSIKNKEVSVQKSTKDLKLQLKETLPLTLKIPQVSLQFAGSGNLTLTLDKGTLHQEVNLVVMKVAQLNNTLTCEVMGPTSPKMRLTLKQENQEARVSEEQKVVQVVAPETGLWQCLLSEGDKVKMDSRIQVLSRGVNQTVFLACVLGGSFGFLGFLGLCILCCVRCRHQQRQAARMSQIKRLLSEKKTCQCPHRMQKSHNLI
Excerpt: (§1) CD4 is a member of immunoglobulin superfamily. It contains four extracellular immunoglobulin domains, Domain 1 to 4 from distal to proximal to cell membrane. The four CD4 extracellular domains and its intracellular domain were named D1-D5 and were expressed transiently with a mouse CD4 backbone in HEK-293 cells. The three antibodies were used to detect human CD4 D1-D5 expression by flow cytometry on these 293 cells.

HEK293-6E/domain5 = biological target: T2, HEK293-6E/domain5 (Mus musculus;Homo sapiens, UniProt P06332;P01730); test: flow cytometry on HEK293-6E cells expressing mouse CD4 with human CD4 domain 5 (intracellular), against isotype control
T2 construct: full-length backbone without its own intracellular domain;single domain inserted in the mouse backbone; transiently expressed on HEK-293 cells; the human part is intracellular, the extracellular part is mouse CD4; also called hybrid CD4 protein: mouse CD4 backbone with human CD4 intracellular domain; D5
T2 sequence (P06332 other isoform, or with tags, fused parts or gaps limits assumed): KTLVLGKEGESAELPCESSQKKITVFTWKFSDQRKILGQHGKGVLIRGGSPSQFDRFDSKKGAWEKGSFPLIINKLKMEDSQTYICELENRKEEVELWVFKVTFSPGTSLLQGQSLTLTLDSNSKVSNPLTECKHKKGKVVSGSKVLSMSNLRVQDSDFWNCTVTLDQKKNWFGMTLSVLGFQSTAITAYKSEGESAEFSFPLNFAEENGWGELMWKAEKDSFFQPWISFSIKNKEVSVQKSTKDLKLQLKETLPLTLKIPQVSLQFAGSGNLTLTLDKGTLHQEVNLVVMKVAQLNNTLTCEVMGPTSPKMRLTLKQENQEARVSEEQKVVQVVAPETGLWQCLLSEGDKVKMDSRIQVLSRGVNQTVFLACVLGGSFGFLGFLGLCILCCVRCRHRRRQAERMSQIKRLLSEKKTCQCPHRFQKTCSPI
Excerpt: as §1

human CD4 = human CD4 (human, UniProt P01730 26-458); test: cell-based or functional assay

| Binder | binding result [1] | binding result (HEK293-6E/domain5) | CD4+ cells in the effector population after 24 h co-culture (18.9% in UNT control) (human CD4) [%] |
| --- | --- | --- | --- |
| B1 | no binding | no binding | – |
| B2 | no binding | no binding | – |
| B3 | – | – | 0 |
| B4 | – | – | 12.5 |
| B5 | – | – | 13.1 |

— patent US20220265711A1 (NANJING LEGEND BIOTECH, published 2022)
